Reference: paper PMC2907061 (Traffic (Copenhagen, Denmark), 2009)
Read-outs that look alike come from different tables or passages of the source. Each block holds one binder with its values, some of them ahead of it.

B2: untagged recombinant Nap1 (natural protein, yeast, UniProt P25293 1-417, looked up)
chain: MSDPIRTKPKSSMQIDNAPTPHNTPASVLNPSYLKNGNPVRAQAQEQDDKIGTINEEDILANQPLLLQSIQDRLGSLVGQDSGYVGGLPKNVKEKLLSLKTLQSELFEVEKEFQVEMFELENKFLQKYKPIWEQRSRIISGQEQPKPEQIAKGQEIVESLNETELLVDEEEKAQNDSEEEQVKGIPSFWLTALENLPIVCDTITDRDAEVLEYLQDIGLEYLTDGRPGFKLLFRFDSSANPFFTNDILCKTYFYQKELGYSGDFIYDHAEGCEISWKDNAHNVTVDLEMRKQRNKTTKQVRTIEKITPIESFFNFFDPPKIQNEDQDEELEEDLEERLALDYSIGEQLKDKLIPRAVDWFTGAALEFEFEEDEEEADEDEDEEEDDDHGLEDDDGESAEEQDDFAGRPEQAPECKQS

Assays:
Assay in all cases: pull-down
MBP-Kap114 [1] = target: T1, MBP-Kap114 (yeast, UniProt P53067 1-1004)
T1 sequence (looked up): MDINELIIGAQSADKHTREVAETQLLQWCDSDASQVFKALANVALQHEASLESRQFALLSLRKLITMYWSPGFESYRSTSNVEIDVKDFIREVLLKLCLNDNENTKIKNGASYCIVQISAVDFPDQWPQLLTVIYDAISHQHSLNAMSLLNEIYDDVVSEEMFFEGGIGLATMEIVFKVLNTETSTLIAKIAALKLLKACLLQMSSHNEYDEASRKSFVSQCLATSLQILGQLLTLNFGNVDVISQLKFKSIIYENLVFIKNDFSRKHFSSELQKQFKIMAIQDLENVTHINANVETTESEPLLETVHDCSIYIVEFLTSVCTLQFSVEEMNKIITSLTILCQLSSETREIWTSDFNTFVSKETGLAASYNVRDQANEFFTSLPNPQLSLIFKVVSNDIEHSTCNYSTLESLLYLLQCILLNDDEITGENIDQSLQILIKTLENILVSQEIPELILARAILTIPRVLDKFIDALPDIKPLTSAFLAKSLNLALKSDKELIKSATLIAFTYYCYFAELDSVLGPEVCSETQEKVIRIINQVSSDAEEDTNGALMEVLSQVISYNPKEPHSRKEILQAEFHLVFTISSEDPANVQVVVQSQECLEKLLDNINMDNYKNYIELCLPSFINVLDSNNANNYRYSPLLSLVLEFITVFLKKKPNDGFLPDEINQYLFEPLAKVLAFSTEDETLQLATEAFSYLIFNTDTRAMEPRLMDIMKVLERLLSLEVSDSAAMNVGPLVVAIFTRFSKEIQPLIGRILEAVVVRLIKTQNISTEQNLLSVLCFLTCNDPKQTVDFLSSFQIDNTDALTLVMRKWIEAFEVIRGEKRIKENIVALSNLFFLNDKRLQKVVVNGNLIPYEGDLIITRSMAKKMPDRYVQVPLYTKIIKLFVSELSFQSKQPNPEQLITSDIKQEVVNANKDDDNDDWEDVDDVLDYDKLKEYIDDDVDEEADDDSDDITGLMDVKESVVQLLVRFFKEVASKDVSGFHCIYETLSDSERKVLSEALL

MBP-Kap123 = target: T2, MBP-Kap123 (yeast, UniProt P40069 1-1113)
T2 sequence (looked up): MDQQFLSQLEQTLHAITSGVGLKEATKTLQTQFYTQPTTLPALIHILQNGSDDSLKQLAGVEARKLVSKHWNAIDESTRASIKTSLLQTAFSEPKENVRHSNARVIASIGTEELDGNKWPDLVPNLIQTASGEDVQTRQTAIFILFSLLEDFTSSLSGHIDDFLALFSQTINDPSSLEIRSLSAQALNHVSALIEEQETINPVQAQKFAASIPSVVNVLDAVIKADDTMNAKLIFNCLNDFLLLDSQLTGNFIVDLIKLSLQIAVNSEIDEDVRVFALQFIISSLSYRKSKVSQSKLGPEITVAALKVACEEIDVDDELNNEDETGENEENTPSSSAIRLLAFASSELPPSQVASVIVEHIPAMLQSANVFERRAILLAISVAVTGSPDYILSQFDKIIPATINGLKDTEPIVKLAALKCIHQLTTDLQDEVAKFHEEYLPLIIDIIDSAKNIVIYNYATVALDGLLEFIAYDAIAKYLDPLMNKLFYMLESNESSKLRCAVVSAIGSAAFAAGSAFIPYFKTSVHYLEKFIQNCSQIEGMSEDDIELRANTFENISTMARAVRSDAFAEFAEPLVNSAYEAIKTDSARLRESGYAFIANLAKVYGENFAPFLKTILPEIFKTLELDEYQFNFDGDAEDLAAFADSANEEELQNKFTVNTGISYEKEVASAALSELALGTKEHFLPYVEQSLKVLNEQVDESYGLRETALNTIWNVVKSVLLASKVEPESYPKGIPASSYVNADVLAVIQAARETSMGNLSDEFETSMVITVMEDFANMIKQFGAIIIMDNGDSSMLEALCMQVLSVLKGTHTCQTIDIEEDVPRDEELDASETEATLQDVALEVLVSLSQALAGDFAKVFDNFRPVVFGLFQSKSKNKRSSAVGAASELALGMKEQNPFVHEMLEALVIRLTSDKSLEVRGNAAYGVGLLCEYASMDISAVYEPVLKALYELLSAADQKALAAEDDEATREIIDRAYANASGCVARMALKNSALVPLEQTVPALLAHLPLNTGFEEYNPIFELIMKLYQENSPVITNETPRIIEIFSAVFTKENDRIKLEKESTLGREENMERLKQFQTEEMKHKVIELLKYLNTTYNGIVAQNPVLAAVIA

[2] = target: T3, untagged recombinant Kap95 (yeast, UniProt Q06142 1-861)
T3 sequence (looked up): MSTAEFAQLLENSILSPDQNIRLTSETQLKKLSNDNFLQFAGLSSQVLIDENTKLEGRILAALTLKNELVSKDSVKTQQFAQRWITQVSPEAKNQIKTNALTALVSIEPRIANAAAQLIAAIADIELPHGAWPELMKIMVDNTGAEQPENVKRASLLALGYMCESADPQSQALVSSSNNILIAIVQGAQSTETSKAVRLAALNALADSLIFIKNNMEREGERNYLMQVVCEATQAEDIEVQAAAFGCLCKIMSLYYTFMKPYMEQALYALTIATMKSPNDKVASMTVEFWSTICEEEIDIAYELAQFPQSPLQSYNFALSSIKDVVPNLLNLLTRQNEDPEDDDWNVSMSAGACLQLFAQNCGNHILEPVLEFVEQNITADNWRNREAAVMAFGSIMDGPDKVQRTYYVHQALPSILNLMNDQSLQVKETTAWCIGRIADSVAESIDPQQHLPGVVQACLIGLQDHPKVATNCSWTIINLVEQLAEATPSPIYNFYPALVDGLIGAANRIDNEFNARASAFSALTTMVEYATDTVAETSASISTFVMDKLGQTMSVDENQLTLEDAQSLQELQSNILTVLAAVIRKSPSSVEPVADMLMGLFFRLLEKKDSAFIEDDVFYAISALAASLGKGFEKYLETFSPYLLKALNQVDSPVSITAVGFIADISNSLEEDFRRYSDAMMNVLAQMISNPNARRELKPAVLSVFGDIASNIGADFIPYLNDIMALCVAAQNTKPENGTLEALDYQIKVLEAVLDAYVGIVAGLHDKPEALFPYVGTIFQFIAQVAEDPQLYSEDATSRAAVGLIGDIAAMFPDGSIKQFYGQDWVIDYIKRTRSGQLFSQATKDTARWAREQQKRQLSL

[3] = target: B2
MBP-Kap114 [4] = target: T1, MBP-Kap114; remark: listed apart in the source
[5] = target: T3, untagged recombinant Kap95; remark: listed apart in the source

binding result (MBP-Kap114 [1]): binds | binding result (MBP-Kap123): binds | binding result [2]: binds | binding result [3]: binds
B1: GST-Htz1_(1–53) (domain or fragment, yeast, UniProt Q12692 1-53, looked up)
chain: MSGKAHGGKGKSGAKDSGSLRSQSSSARAGLQFPVGRIKRYLKRHATGRTRVG

Binder: B2
binding result (MBP-Kap114 [4]): binds

binding result [5]: binds
B3: H6-Srp1 (natural protein, yeast, UniProt Q02821 1-542, looked up)
chain: MDNGTDSSTSKFVPEYRRTNFKNKGRFSADELRRRRDTQQVELRKAKRDEALAKRRNFIPPTDGADSDEEDESSVSADQQFYSQLQQELPQMTQQLNSDDMQEQLSATVKFRQILSREHRPPIDVVIQAGVVPRLVEFMRENQPEMLQLEAAWALTNIASGTSAQTKVVVDADAVPLFIQLLYTGSVEVKEQAIWALGNVAGDSTDYRDYVLQCNAMEPILGLFNSNKPSLIRTATWTLSNLCRGKKPQPDWSVVSQALPTLAKLIYSMDTETLVDACWAISYLSDGPQEAIQAVIDVRIPKRLVELLSHESTLVQTPALRAVGNIVTGNDLQTQVVINAGVLPALRLLLSSPKENIKKEACWTISNITAGNTEQIQAVIDANLIPPLVKLLEVAEYKTKKEACWAISNASSGGLQRPDIIRYLVSQGCIKPLCDLLEIADNRIIEVTLDALENILKMGEADKEARGLNINENADFIEKAGGMEKIFNCQQNENDKIYEKAYKIIETYFGEEEDAVDETMAPQNAGNTFGFGSNVNQQFNFN
